The chains are these.
B1: Hairpin Ribozyme (parent)
chain: GUCCUCUUUCACGUGCGCGUGAAAGAGAGAAGUGAACCAGAGAAACACACGUUGUGGUAUAUUACCUGGUA

The variants in the data set derive from B1. Briefly: self-cleavage, relative activity (ratio to wild type); higher = more cleavage; co-transcriptional.
U52C C66U: the self-cleavage was determined as 0.626.

With U52A C65U, the self-cleavage was 0.328.

As to C50U C65A, the self-cleavage turned out to be 0.359.

As for C48U A61C, the self-cleavage amounted to 0.128.

Turning to C50U A59U, the self-cleavage came out at 0.272.

G51C U53C: the self-cleavage turned out to be 0.828.

Turning to G51C U53G, the self-cleavage amounted to 0.675.

With A49C G54A, the self-cleavage is 0.235.

Turning to G51C G69C, the self-cleavage came to 0.28.

In the case of A49U C66A, the self-cleavage was 0.181.

Take A49U C66G: the self-cleavage amounted to 0.136.

As to A49U C66U, the self-cleavage stood at 0.102.

For U52C G68A, the self-cleavage came out at 0.258.

In the case of U52C G68C, the self-cleavage came to 0.219.

On to U52C G68U, for which the self-cleavage amounted to 0.311.

Take U53C G69U: the self-cleavage stood at 0.378.

Turning to C48G A49C, the self-cleavage is 0.223.

Take A49G U53A: the self-cleavage was found to be 0.4.

On to U52A C66U, for which the self-cleavage is 0.604.

Turning to U52A C66G, the self-cleavage worked out at 0.149.

Regarding C48U U60A, the self-cleavage is 0.107.

With A49G U60A, the self-cleavage was 0.475.

Consider A49G U60C, for which the self-cleavage was 0.722.

Turning to A49G A61U, the self-cleavage is 0.217.

With A49G A61G, the self-cleavage was 0.211.

With A49U A64G, the self-cleavage was 0.145.

Regarding A49U A64C, the self-cleavage was 0.163.

With C48U U55A, the self-cleavage was determined as 0.196.

Consider C48U U55G, for which the self-cleavage came out at 0.223.

Take C50A C66A: the self-cleavage turned out to be 0.145.

U52C A71C: the self-cleavage was 1.51.

For the variant U52C A71G, the self-cleavage is 1.08.

Take U52G U67A: the self-cleavage amounted to 0.212.

For the variant A49G U62A, the self-cleavage stood at 0.0894.

In the case of A49G U62G, the self-cleavage is 0.0712.

As to C50A U55A, the self-cleavage was 0.6.

With C50A U55G, the self-cleavage was determined as 0.419.

Take C50U U60A: the self-cleavage was 0.251.

For C50G U52C, the self-cleavage was 0.155.

With C48G U58G, the self-cleavage was found to be 0.0532.

For the variant U52C U67G, the self-cleavage was found to be 0.276.

For the variant C50G U53A, the self-cleavage is 0.251.

As to C50G U53G, the self-cleavage was found to be 0.0749.

Consider A49C G57U, for which the self-cleavage amounted to 0.0763.

U52G A64U: the self-cleavage was 0.183.

C50G C66G: the self-cleavage amounted to 0.0636.

In the case of C50U A71U, the self-cleavage turned out to be 0.211.

On to C50U A71C, for which the self-cleavage is 0.925.

For U53A U62C, the self-cleavage came out at 0.231.

C50U G56A: the self-cleavage turned out to be 0.203.

Turning to C50U G54A, the self-cleavage is 0.864.

As for G51A U62G, the self-cleavage came out at 0.262.

Consider G51U A71U, for which the self-cleavage was 0.793.

In the case of C48U A71C, the self-cleavage is 0.387.

Consider C48U A71U, for which the self-cleavage was 0.146.

Take A49U U67G: the self-cleavage worked out at 0.109.

For U53C G56A, the self-cleavage was 0.211.

On to U53C G56C, for which the self-cleavage stood at 0.149.

As for U52A A71C, the self-cleavage was determined as 1.46.

For C48U U67A, the self-cleavage came out at 0.119.

C48U U67C: the self-cleavage was 0.11.

Take G51U C65U: the self-cleavage was 0.284.

For the variant G51U C65A, the self-cleavage came to 1.21.

For A49G G69C, the self-cleavage turned out to be 0.186.

Take A49G G69A: the self-cleavage was 0.172.

Take C50G U67A: the self-cleavage was determined as 0.274.

Consider C50G U67G, for which the self-cleavage worked out at 0.101.

Take A49C C50U: the self-cleavage stood at 0.122.

With C48G G68C, the self-cleavage amounted to 0.189.

Turning to C48G G51A, the self-cleavage was found to be 0.172.

As to G51C G56U, the self-cleavage was 0.147.

With A49U U55A, the self-cleavage was 1.03.

Regarding G51C A64C, the self-cleavage worked out at 0.156.

Take G51C A64G: the self-cleavage worked out at 0.521.

With U52G G56A, the self-cleavage was 0.19.

On to G51C C65G, for which the self-cleavage was 0.205.

As for U52A G56U, the self-cleavage was found to be 0.196.

For U52A G56C, the self-cleavage came out at 0.124.

In the case of A49G C50G, the self-cleavage amounted to 0.166.

Consider G51U A64U, for which the self-cleavage was 0.167.

Regarding U53A A59G, the self-cleavage worked out at 0.177.

On to U53A A59U, for which the self-cleavage is 0.129.

A49U U60G: the self-cleavage was 0.0756.

Take C50G G54C: the self-cleavage is 0.634.

As to A49G A59U, the self-cleavage was 0.131.

Turning to G51A G54C, the self-cleavage worked out at 0.36.

Turning to U53A U55A, the self-cleavage turned out to be 0.0855.

Consider A49G A71G, for which the self-cleavage worked out at 0.526.

In the case of A49G A71C, the self-cleavage is 1.18.

A49G A71U: the self-cleavage was found to be 0.397.

As to A49U A71C, the self-cleavage was 0.607.

Regarding A49U A59G, the self-cleavage stood at 0.091.

Turning to U52A G57A, the self-cleavage is 0.182.

Take U52A G57U: the self-cleavage was found to be 0.267.

On to G51A U58G, for which the self-cleavage amounted to 1.12.

Take C48U G68C: the self-cleavage amounted to 0.247.

For the variant C48U G68A, the self-cleavage is 0.244.

For the variant G51U U60C, the self-cleavage worked out at 1.49.

With G51U U60G, the self-cleavage came out at 0.659.

With C48U G69A, the self-cleavage was 0.178.

Turning to A49G U55A, the self-cleavage worked out at 0.431.

Take U53C U55C: the self-cleavage was 0.329.

For U53C U55A, the self-cleavage is 0.34.

Regarding U53C U55G, the self-cleavage was 0.306.

For C50G U70A, the self-cleavage amounted to 0.178.

Regarding U53C A71G, the self-cleavage came to 1.05.

As for U53C A71C, the self-cleavage amounted to 1.26.

Take U52G U70A: the self-cleavage came out at 0.638.

Consider C48U C65U, for which the self-cleavage was 0.154.

Take U52G C65A: the self-cleavage is 0.782.

As for C50A G57U, the self-cleavage was 0.128.

In the case of U53C G68A, the self-cleavage stood at 0.328.

Regarding U53C G68U, the self-cleavage was 0.361.

On to U53C G68C, for which the self-cleavage came to 0.267.

Consider A49C U52A, for which the self-cleavage is 0.0356.

With A49C U52G, the self-cleavage is 0.14.

As for C50G U58C, the self-cleavage was found to be 0.297.

Regarding C50G U58A, the self-cleavage is 0.0745.

Turning to C50G A71U, the self-cleavage was determined as 0.148.

On to C50G A71G, for which the self-cleavage was 0.202.

For C50A U67A, the self-cleavage worked out at 0.153.

As to G51C U55G, the self-cleavage amounted to 0.268.

With G51C U55C, the self-cleavage was 0.306.

In the case of C50A U63A, the self-cleavage was found to be 0.0698.

On to C50A U63G, for which the self-cleavage was 0.2.

A49C G69C: the self-cleavage was 0.241.

Regarding G51U U58A, the self-cleavage was found to be 0.439.

On to G51C U60C, for which the self-cleavage came out at 1.23.

Consider G51C U60A, for which the self-cleavage was found to be 0.589.

Turning to U53C U62A, the self-cleavage came to 0.119.

As for C50A U53G, the self-cleavage is 0.395.

For U53A A61U, the self-cleavage stood at 0.248.

Regarding U52A A59U, the self-cleavage is 0.243.

For the variant G51U U62C, the self-cleavage was 0.324.

For the variant A49C A71G, the self-cleavage was 0.177.

In the case of C48U A64G, the self-cleavage worked out at 0.0861.

Consider C48U A64U, for which the self-cleavage is 0.11.

With C48U A64C, the self-cleavage worked out at 0.255.

With G51C C66G, the self-cleavage is 0.206.

As for C50A U70C, the self-cleavage turned out to be 0.244.

U52C G57U: the self-cleavage worked out at 0.207.

On to G51U U67G, for which the self-cleavage came to 0.384.

Turning to U53C A61U, the self-cleavage was 0.377.

U53C A61G: the self-cleavage is 0.254.

As to U52A A64U, the self-cleavage stood at 0.177.

For the variant A49U G69A, the self-cleavage is 0.136.

For A49C G51C, the self-cleavage amounted to 0.1.

Consider A49C G51U, for which the self-cleavage was found to be 0.0813.

Consider U52C G56A, for which the self-cleavage amounted to 0.211.

U52C: the self-cleavage turned out to be 0.97.

Turning to U52G, the self-cleavage was 0.862.

For U52A, the self-cleavage was 1.03.

In the case of U52C A59C, the self-cleavage was determined as 0.254.

On to U52C A59G, for which the self-cleavage amounted to 0.0564.

For C50A G56A, the self-cleavage was 0.21.

In the case of C50G U60C, the self-cleavage stood at 0.353.

Take A49C G56U: the self-cleavage was determined as 0.23.

For U53C, the self-cleavage came out at 0.97.

In the case of U53A, the self-cleavage was determined as 1.01.

G51U U63G: the self-cleavage is 0.16.

Regarding G51U U63A, the self-cleavage turned out to be 0.215.

With G51U G57U, the self-cleavage is 0.271.

Turning to G51U G57C, the self-cleavage amounted to 0.137.

With A49C A59C, the self-cleavage stood at 0.168.

As for A49C A59G, the self-cleavage was 0.167.

As for C50A A61G, the self-cleavage was 0.12.

Consider C50G A64U, for which the self-cleavage was 0.19.

(Values after the RNAGym collection of RNA variant scans (doi:10.7554/elife.80360).)
